For 20 molecules, IC50 results are on record in patent US20220315631A1, “STAPLED BETA-CATENIN LIGANDS” (Ohio State Innovation Foundation, priority 2019, published 2022).

Assay [1] has as its target T1, β-catenin (Homo sapiens, UniProt P35222).
T1 construct: cells harboring plasmid pGEX-β-catenin(133-665)52 were grown in LB medium; made in house; host or cells: E. coli BL21 (DE3)
T1 sequence (P35222 133-665): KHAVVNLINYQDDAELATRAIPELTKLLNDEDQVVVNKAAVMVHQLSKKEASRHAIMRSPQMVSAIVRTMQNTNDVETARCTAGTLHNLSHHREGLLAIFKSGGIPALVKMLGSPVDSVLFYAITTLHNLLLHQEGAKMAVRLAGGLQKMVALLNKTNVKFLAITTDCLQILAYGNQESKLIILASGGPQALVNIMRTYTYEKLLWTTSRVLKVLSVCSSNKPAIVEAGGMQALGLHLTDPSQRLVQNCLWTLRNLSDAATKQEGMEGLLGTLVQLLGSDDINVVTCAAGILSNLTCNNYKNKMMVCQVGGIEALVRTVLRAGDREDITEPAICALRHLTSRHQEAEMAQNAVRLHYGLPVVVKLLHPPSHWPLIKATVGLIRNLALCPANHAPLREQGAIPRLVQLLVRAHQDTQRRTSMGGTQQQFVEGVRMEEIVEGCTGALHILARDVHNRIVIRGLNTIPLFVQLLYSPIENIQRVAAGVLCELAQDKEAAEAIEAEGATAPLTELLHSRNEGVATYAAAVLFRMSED
Kind of assay: FP-based competition assay for binding to β-catenin. The conditions noted are these: IC50; competition with FAM-labeled peptide 1 (10 nM), 50 nM GST-β-catenin; read-out: KD or IC50. The procedure: Samples were transferred into black-on-black 384-well non-binding microplates (Greiner) and FP was measured using a Tecan M1000 Infinite plate reader. The data were analyzed using GraphPad Prism v. 8.0 and normalized to FP values corresponding to fully bound/unbound probe. All binding values reported are the mean±SD of independent experiments.
Protein Purification. […] Cells were harvested by centrifugation and lysed in lysis buffer (20 mM Tris, pH 8.0, 150 mM NaCl, 2 mM DTT, 1% Triton-X100, 200 mM EDTA, 10 mg/mL PMSF, and 0.2 mg/mL lysozyme) on ice for 20 min, followed by sonication (8 s off, 2 s on, 1 min total, performed twice at 70% amplitude). The homogenate was centrifuged (13,000 g for 30 min at 4° C. and the clear supernatant was loaded onto an equilibrated glutathione-agarose column. After exhaustive washing with wash buffer (20 mM Tris, pH 7.4, 150 mM NaCl, 2 mM DTT), the bound GST-β-catenin was eluted with wash buffer supplemented with 10 mM glutathione, concentrated, and stored at −80° C. in 30% glycerol.

Assay [2] has as its target T2, GST-β-catenin (UniProt P35222 133-665).
T2 construct: range 133-665; GST fusion purified on glutathione-agarose and used in the FP assays; also called GST-β-catenin(133-665); pGEX-β-catenin(133-665); not shown: glutathione S-transferase (GST) tag encoded by the pGEX plasmid
T2 sequence (looked up): T1 sequence (P35222 133-665)
Kind of assay: Table 7, binding to β-catenin; FP competition as for peptides 2-5 presumed.

Positions of bridges follow the written chain, without caps; N, C: chain ends. Non-standard residues stand in square brackets, D forms with d. Residues, ends and D or L forms follow the SMILES beside them. No end group written: not given here. m‑xylene = 1,3-bis[(methylthio)methyl]benzene scaffold from m-xylene dibromide; miniPEG = polyethylene glycol moiety (linker unit); 1Nal = N[C@@H](Cc1cccc2ccccc12)C(=O)O; 2Nal = N[C@@H](Cc1ccc2ccccc2c1)C(=O)O; Bta = N[C@@H](Cc1csc2ccccc12)C(=O)O; Tle = CC(C)(C)[C@H](N)C(=O)O; Dap = NC[C@H](N)C(=O)O; AEEA = NCCOCCOCC(=O)O; βAla = NCCC(=O)O

The IC50 is the midpoint of a concentration-inhibition curve.

As for `CC[C@H](C)[C@@H]1NC(=O)[C@@H](NC(=O)[C@H](CCC(=O)O)NC(=O)[C@@H]2CCCN2C(=O)[C@H](Cc2ccc(O)cc2)NC(C)=O)CC(=O)NCCCC[C@@H](C(=O)N[C@@H](Cc2c[nH]cn2)C(=O)N[C@@H](CC(C)C)C(=O)N[C@@H](CCC(N)=O)C(=O)N[C@@H](CCCNC(=N)N)C(=O)N[C@H](C(=O)N[C@@H](Cc2csc3ccccc23)C(=O)N[C@@H](CCCNC(=N)N)C(=O)NCCOCCOCC(=O)NCCOCCOCC(=O)N[C@@H](CN)C(N)=O)C(C)(C)C)NC(=O)[C@H](CC(=O)O)NC(=O)[C@H](CC(C)C)NC1=O` [Peptide 26, Ac-YPEDILDKHLQRZ(3-Bta)R-(miniPEG)2-Dap-NH2] (Ac-YPEDILDKHLQR[Tle][Bta]R[AEEA][AEEA][Dap]-NH2; lactam 4-8), the IC50 in assay [1] worked out at 37 nM.
The same measure, in the same setting: under `CC[C@H](C)[C@@H]1NC(=O)[C@@H](NC(=O)[C@H](CCC(=O)O)NC(=O)[C@@H]2CCCN2C(=O)[C@H](Cc2ccc(O)cc2)NC(C)=O)CC(=O)NCCCC[C@@H](C(=O)N[C@@H](Cc2c[nH]cn2)C(=O)N[C@@H](CC(C)C)C(=O)N[C@@H](CCC(N)=O)C(=O)N[C@@H](CCCNC(=N)N)C(=O)N[C@H](C(=O)N[C@@H](Cc2csc3ccccc23)C(=O)N[C@H](CCCNC(=N)N)C(=O)NCCOCCOCC(=O)NCCOCCOCC(=O)N[C@@H](CN)C(N)=O)C(C)(C)C)NC(=O)[C@H](CC(=O)O)NC(=O)[C@H](CC(C)C)NC1=O` [Peptide 27, Ac-YPEDILDKHLQRZ(3-Bta)(dR)-(miniPEG)2-Dap-NH2] (Ac-YPEDILDKHLQR[Tle][Bta][dR][AEEA][AEEA][Dap]-NH2; lactam 4-8) stands 41 nM.

B1: Peptide 13 (peptide)
peptide: Ac-GGYPEDILDKHLQR[Tle][2Nal]L-NH2
modifications: lactam 6-10
notes: also called Ac-GGYPEDILDKHLQRZ(2-Nal)L-NH2
With B1, in assay [2], the IC50 is 86 nM.

B2: Peptide 14 (peptide)
peptide: XXRXRXQGGYPEDILDKHLQRXXL
modifications: not fully specified; N-terminal CPP9-(miniPEG)2; Asp-Lys staple; Z = tert-leucine; 3-Bta = 3-benzothienyl-l-alanine; C-terminal amide
notes: also called CPP9-(miniPEG)2-GGYPEDILDKHLQRZ(3-Bta)L-NH2
In turn, B2 displayed an IC50 in assay [2] of 63.5 nM.

B3: Peptide 15 (peptide)
peptide: XXRXRXQGGYPEDILDKHLQRXXL
modifications: not fully specified; N-terminal CPP9-(miniPEG)2; Asp-Lys staple; Z = tert-leucine; 2-Nal = 2-napthylalanine; C-terminal amide
notes: also called CPP9-(miniPEG)2-GGYPEDILDKHLQRZ(2-Nal)L-NH2
B3: the IC50 in assay [2] worked out at 79.4 nM.

B4: Peptide 18 (peptide)
peptide: Ac-GGYPEDILDKHLQR[Tle][Bta]L[AEEA][AEEA][Dap][dF][2Nal]R[dR]R[dR]Q
modifications: lactam 6-10; bridge (positions not given here); not fully specified (bridges); numbers in words are those of the source; also: cCPP9 ring hung on Dap18 side chain via Gln25 side chain, no backbone bond Dap18-X19
notes: also called Ac-GGYPEDILDKHLQRZ(3-Bta)L-(miniPEG)2-Dap(CPP9)
Regarding B4, the IC50 in assay [2] stood at 104 nM.

B5: Peptide 7 (peptide)
peptide: Ac-GGYPECILDCKHLQDVILK[βAla]-NH2
modifications: lactam (positions not given here); linker 6-10 via m‑xylene; not fully specified; also: Asp-Lys staple, places not given here (residues shown as images)
notes: Double stapled peptide
As for B5, the IC50 in assay [2] was determined as 3200 nM.

B6: Peptide 16 (peptide)
peptide: Ac-GG[Bta]PEDILDKHLQR[Tle][Bta]L-NH2
modifications: lactam 6-10
SMILES: CC[C@H](C)[C@@H]1NC(=O)[C@@H](NC(=O)[C@H](CCC(=O)O)NC(=O)[C@@H]2CCCN2C(=O)[C@H](Cc2csc3ccccc23)NC(=O)CNC(=O)CNC(C)=O)CC(=O)NCCCC[C@@H](C(=O)N[C@@H](Cc2c[nH]cn2)C(=O)N[C@@H](CC(C)C)C(=O)N[C@@H](CCC(N)=O)C(=O)N[C@@H](CCCNC(=N)N)C(=O)N[C@H](C(=O)N[C@@H](Cc2csc3ccccc23)C(=O)N[C@@H](CC(C)C)C(N)=O)C(C)(C)C)NC(=O)[C@H](CC(=O)O)NC(=O)[C@H](CC(C)C)NC1=O
notes: also called Ac-GG(3-Bta)PEDILDKHLQRZ(3-Bta)L-NH2
Turning to B6, the IC50 in assay [2] is 97.9 nM.
The same measure, in the same setting: the result for Ac-YPEDILDKHLQ[dE]V[Bta]T[miniPEG][miniPEG][Dap]-NH2 (lactam 4-8) [Peptide 22] reads 3500 nM; that for Ac-YPEDILDKHLQSV[Bta][dS][miniPEG][miniPEG][Dap]-NH2 (lactam 4-8) [Peptide 23], 565 nM.

B7: Peptide 28 (peptide)
peptide: Ac-YPEDILDKHLQRV[Tle]L[miniPEG][miniPEG][Dap]-NH2
modifications: lactam 4-8
notes: also called Ac-YPEDILDKHLQRVZL-(miniPEG)2-Dap-NH2
In turn, B7 showed an IC50 in assay [2] of 306 nM.
On the same count and under the same terms, under Ac-GGYPEDILDKHLQR[Tle]WL-NH2 (lactam 6-10, also called Ac-GGYPEDILDKHLQRZWL-NH2) [Peptide 10] stands 71 nM.

B8: Peptide 11 (peptide)
peptide: Ac-GGYPEDILDKHLQR[Tle][Bta]L-NH2
modifications: lactam 6-10
notes: also called Ac-GGYPEDILDKHLQRZ(3-Bta)L-NH2
As to B8, in assay [2], the IC50 was 65 nM.
The same measure, in the same setting: under Ac-GGYPEDILDKHLQRVIL-NH2 (lactam (positions not given here); not fully specified) [Peptide 6] stands 245 nM.

B9: Peptide 12 (peptide)
peptide: Ac-GGYPEDILDKHLQR[Tle][1Nal]L-NH2
modifications: lactam 6-10
notes: also called Ac-GGYPEDILDKHLQRZ(1-Nal)L-NH2
On to B9, for which, in assay [2], the IC50 is 175 nM.
On the same count and under the same terms, under Ac-GGYPEDILDKHLQCVILC[βAla]-NH2 (lactam 6-10; linker 14-18 via m‑xylene, Double stapled peptide) [Peptide 8] stands 525000 nM; under YPEDILDKHLQRXIL (N-terminal acetyl; Asp-Lys staple; Hvl = β-hydroxyvaline; C-terminal amide) [Peptide 37], 154 nM; under Ac-YPEDILDKHLQSV[Bta]T[miniPEG][miniPEG][Dap]-NH2 (lactam 4-8) [Peptide 19], 382 nM.
For the molecule Ac-YPEDILDKHLQEV[Bta]T[miniPEG][miniPEG][Dap]-NH2 (lactam 4-8) [Peptide 20], in assay [2], the IC50 was found to be 1800 nM.
In the case of Ac-YPEDILDKHLQQV[Bta]T[miniPEG][miniPEG][Dap]-NH2 (lactam 4-8) [Peptide 21], in assay [2], the IC50 amounted to 328 nM.
